Laboratory results taken from patent publication US7589065B2, “Catalysis of the cis/trans-isomerisation of secondary amide peptide compounds” (Max-Planck Gesellschaft zur Forderung der Wissenschaften, …, priority 2001, dated 2009).

Assay: 2D 1H NMR exchange (NOESY) measurement of cis/trans isomerisation in the pentapeptide
Format: biochemical
Details: 20 μM addition; for relative intensity of the cross signal of the peptide bond Ala-Tyr / relative intensity of the cross signal of the peptide bond Tyr-Ala: 25 mM pentapeptide, pH 7.1, 278° K; for relative intensity of the cross signal of the peptide bond Ala-Tyr: no addition 3.50 ± 0.51; for relative intensity of the cross signal of the peptide bond Tyr-Ala: no addition 3.89 ± 0.32
Text: A further possibility, only described in 1998, is the determination of the cis/trans isomerisation rate of secondary amide peptide bonds containing aromatic amino acids by means of 2D 1H NMR exchange experiments (Scherer G. et al., 1998, JACS 120:5568-5574). In Example 8, this NMR method is used to determine a catalytic acceleration of the cis/trans isomerisation of the peptide bonds Ala-Tyr and Tyr-Ala within the pentapeptide Ala-Ala-Tyr-Ala-Ala. The acceleration is accomplished by catalytic amounts of DnaK.
NMR Device: Bruker DRX-500, Equipped with z-gradient
• FIG. 8: The alanine methyl region from the two-dimensional exchange 1H-NMR spectrum of 25 mM Ala-Ala-Tyr-Ala-Ala in 25 mM Tris, 11 mM MgCl2, 50 mM KCl, 9:1H2O:D2O, pH 7.1 at 278° K. The mixing time of the phase-sensitive NOESY was 330 ms. Each FID had 184 scans. The amount of data from t1×t2=512×8192 points covered a spectral range of 5501 Hz×5482 Hz. The correction of the base line was carried out by adjustment with a polynom of fifth order in the F2 dimension. […] The experiment was carried out under identical conditions as described above. In addition, 20 μM DnaK was contained in the measuring solution.
In a further analysis of the method of the two-dimensional NOESY experiment illustrated in Example 8, the cross signals can be quantified by means of common mathematical techniques.

B1: Parvulin: peptidyl-prolyl cis/trans isomerase (Rahfeld et al., 1994) (protein)
chain: AKTAAALHILVKEEKLALDLLEQIKNGADFGKLAKKHSICPSGKRGGDLGEFRQGQMVPAFDKVVFSCPVLEPTGPLHTQFGYHIIKVLYRN
- catalysis of the cis/trans isomerisation of the Ala-Tyr and Tyr-Ala peptide bonds (in words): neither catalyse
- relative intensity of the cross signal of the peptide bond Ala-Tyr: 2.90 ± 0.96
- relative intensity of the cross signal of the peptide bond Tyr-Ala: 3.11 ± 0.46

B2: fragment of the TF: fragment of the trigger factor (Stoller G. et al., 1996) (protein)
chain: RKQQATWKEKDGAVEAEDRVTIDFTGSVDGEEFEGGKASDFVLAMGQGRMIPGFEDGIKGHKAGEEFTIDVTFPEEYHAENLKGKAAKFAINLKKVEERELPELTAE
- catalysis of the cis/trans isomerisation of the Ala-Tyr and Tyr-Ala peptide bonds (in words): neither catalyse
- relative intensity of the cross signal of the peptide bond Ala-Tyr: 3.96 ± 0.77
- relative intensity of the cross signal of the peptide bond Tyr-Ala: 3.22 ± 0.58

B3: trigger factor (TF): peptidyl-prolyl cis/trans isomerase (Stoller G. et al., 1995) (protein)
chain: MQVSVETTQGLGRRVTITIAADSIETAVKSELVNVAKKVRIDGFRKGKVPMNIVAQRYGASVRQDVLGDLMSRNFIDAIIKEKINPAGAPTYVPGEYKLGEDFTYSVEFEVYPEVELQGLEAIEVEKPIVEVTDADVDGMLDTLRKQQATWKEKDGAVEAEDRVTIDFTGSVDGEEFEGGKASDFVLAMGQGRMIPGFEDGIKGHKAGEEFTIDVTFPEEYHAENLKGKAAKFAINLKKVEERELPELTAEFIKRFGVEDGSVEGLRAEVRKNMERELKSAIRNRVKSQAIEGLVKANDIDVPAALIDSEIDVLRRQAAQRFGGNEKQALELPRELFEEQAKRRVVVGLLLGEVIRTNELKADEERVKGLIEEMASAYEDPKEVIEFYSKNKELMDNMRNVALEEQAVEAVLAKAKVTEKETTFNELMNQQA
- catalysis of the cis/trans isomerisation of the Ala-Tyr and Tyr-Ala peptide bonds (in words): neither catalyse
- relative intensity of the cross signal of the peptide bond Ala-Tyr: 3.83 ± 1.07
- relative intensity of the cross signal of the peptide bond Tyr-Ala: 4.42 ± 0.58
